Experimental data reported in PMC10109501 (PLOS Pathogens, 2023).

Target: SARS-CoV-2 original 2019-CoV Spike, prefusion trimeric ectodomain (2P, GSAS, T4 foldon) (SARS-CoV-2, UniProt P0DTC2 14-1213)
Test: BLI
Conditions: both partners purified

B1: cat ACE2-Fc (residues 19-615, mouse IgG2a Fc fusion) (Fc fusion)
chain: STTEELAKTFLEKFNHEAEELSYQSSLASWNYNTNITDENVQKMNEAGAKWSAFYEEQSKLAKTYPLAEIHNTTVKRQLQALQQSGSSVLSADKSQRLNTILNAMSTIYSTGKACNPNNPQECLLLEPGLDDIMENSKDYNERLWAWEGWRAEVGKQLRPLYEEYVALKNEMARANNYEDYGDYWRGDYEEEWTDGYNYSRSQLIKDVEHTFTQIKPLYQHLHAYVRAKLMDTYPSRISPTGCLPAHLLGDMWGRFWTNLYPLTVPFGQKPNIDVTDAMVNQSWDARRIFKEAEKFFVSVGLPNMTQGFWENSMLTEPGDSRKVVCHPTAWDLGKGDFRIKMCTKVTMDDFLTAHHEMGHIQYDMAYAVQPFLLRNGANEGFHEAVGEIMSLSAATPNHLKTIGLLSPGFSEDSETEINFLLKQALTIVGTLPFTYMLEKWRWMVFKGEIPKEQWMQKWWEMKREIVGVVEPVPHDETYCDPASLFHVANDYSFIRYYTRTIYQFQFQEALCRIAKHEGPLHKCDISNSSEAGKKLLQMLTLGKSKPWTLALEHVVGEKKMNVTPLLKYFEPLFTWLKEQNRNSFVGWNTDWRPYAD
B1: binds.
